This data set is described as follows: self-splicing fitness, log relative to wild type (ln ratio); higher = more splicing; Tetrahymena group I intron in knt gene, E. coli kanamycin selection, DiMSum; sequences stand for … in CUCUCU…GGAGGGAAAAGUUAUCAGGCAUGCACCUGGUAGCUAGUCUUUAAACCAAUAGAUUGCAUCGGUUUAAAAGGCAAGACCGUCAAAUUGCGGGAAAGGGGUCAACAGCCGUUCAGUACCAAGUCUCAGGGGAAACUUUGAGAUGGCCUUGCAAAGGGUAUGGUAAUAAGCUGACGGACAUGGUCCUAACCACGCAGCCAAGUCCUAAGUCAACAGAUCUUCUGUUGAUAUGGAUGCAGUUCACAGACUAAAUGUCGGUCGGGGAAGAUGUAUUCUUCUCAUAAGAUAUAGUCGGACCUCUCCUUAAUGGGAGCUAGCGGAUGAAGUGAUGCAACACUGGAGCCGCUGGGAACUAAUUUGUAUGCGAAAGUAUAUUGAUUAGUUUUGGAGUACUCGUGGUCG
Put shortly:
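Library with all eight P1ex-region intron nucleotides randomised, intron inside the knt kanamycin-resistance gene on pET-22b(+), in E. coli BL21(DE3). Cells grew overnight at 37°C or 30°C on LB agar with or without 25 μg/mL kanamycin (plus 100 μg/mL carbenicillin, 50 μM IPTG, 0.2% rhamnose), in six replicate transformations. Pooled colonies were amplicon-sequenced on Illumina HiSeq 2500. DiMSum fitness is the error-weighted combination of wild-type-normalised replicate fold changes, kanamycin versus none.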

± gives the uncertainty stated by the source.

For UAAAAGCAAUAUUACGUAAC, the “self-splicing fitness (ln)” value (30 °C) was -3.84 ± 0.33 and the “self-splicing fitness (ln)” value (37 °C) was -2.02 ± 0.3.
For UUCUAGCAAUAUUACGACAA, in that order: -0.37 ± 0.12 and -0.0185 ± 0.17.
On the same counts, the results for CAACAGCAAUAUUACGAAAC are -3.87 ± 0.2 and -2.01 ± 0.17.
For CUCUAGCAAUAUUACGCGUA, the “self-splicing fitness (ln)” value is -4.1 ± 0.27 (30 °C) and -3.32 ± 0.24 (37 °C).
For GUUUAGCAAUAUUACGAACG, the “self-splicing fitness (ln)” value is -1.78 ± 0.21 (30 °C) and -1.03 ± 0.29 (37 °C).
With AGAUAGCAAUAUUACGCAGU, the “self-splicing fitness (ln)” value by setting is: (30 °C) -2.55 ± 0.17; (37 °C) -1.49 ± 0.17.
On the same counts, the results for CGUGAGCAAUAUUACGGGCG are -2.93 ± 0.46 and -1.63 ± 0.43.
For GCUUAGCAAUAUUACGAUGA, in that order: -0.547 ± 0.12 and -0.556 ± 0.12.
With AUAUAGCAAUAUUACGCGCA, the “self-splicing fitness (ln)” value is -0.342 ± 0.15 (30 °C) and -0.724 ± 0.14 (37 °C).
With GAAUAGCAAUAUUACGAUUU, the “self-splicing fitness (ln)” value by setting is: (30 °C) -1.74 ± 0.12; (37 °C) -0.649 ± 0.11.
For AUGUAGCAAUAUUACGACGA, the “self-splicing fitness (ln)” value reads like this: (30 °C) -0.828 ± 0.11; (37 °C) 0.039 ± 0.14.
For the sequence UUGAAGCAAUAUUACGUGGC, the “self-splicing fitness (ln)” value was -3.36 ± 0.2 (30 °C) and -1.66 ± 0.22 (37 °C).
For UUAUAGCAAUAUUACGUCGU, for the setting “30 °C”, the “self-splicing fitness (ln)” value was -3.1 ± 0.3.
With UUCGAGCAAUAUUACGCUGU, the “self-splicing fitness (ln)” value runs as follows: (30 °C) -3.54 ± 0.2; (37 °C) -2.14 ± 0.21.
With UUCUAGCAAUAUUACGUUAU, the “self-splicing fitness (ln)” value (30 °C) was -1.76 ± 0.26 and the “self-splicing fitness (ln)” value (37 °C) is -2.14 ± 0.27.
For CUUCAGCAAUAUUACGUGAC, in that order: -4.76 ± 0.46 and -3.05 ± 0.37.
Take CCCGAGCAAUAUUACGUUGU: the “self-splicing fitness (ln)” value was -3.46 ± 0.14 (30 °C) and -2.73 ± 0.19 (37 °C).
For GAACAGCAAUAUUACGCGGG, in that order: -1.87 ± 0.1 and -1.37 ± 0.11.
Take UUGGAGCAAUAUUACGCUGG: the “self-splicing fitness (ln)” value is, setting by setting: (30 °C) -1.62 ± 0.34; (37 °C) -0.962 ± 0.32.
On the same counts, the results for UAUAAGCAAUAUUACGUCCU are -1.28 ± 0.11 and 0.43 ± 0.14.
GGAAAGCAAUAUUACGUGUC: the “self-splicing fitness (ln)” value runs as follows: (30 °C) -3.94 ± 0.31; (37 °C) -1.91 ± 0.19.
As to CAUAAGCAAUAUUACGACAA, the “self-splicing fitness (ln)” value was -3.05 ± 0.28 (30 °C) and -1.59 ± 0.19 (37 °C).
As to CCGUAGCAAUAUUACGGGUA, the “self-splicing fitness (ln)” value is -2.75 ± 0.32 (30 °C) and -2.67 ± 0.36 (37 °C).
Consider GCAAAGCAAUAUUACGUAGC, for which the “self-splicing fitness (ln)” value (30 °C) was -4.47 ± 0.46 and the “self-splicing fitness (ln)” value (37 °C) was -1.71 ± 0.22.
For AGUGAGCAAUAUUACGUUUU, the “self-splicing fitness (ln)” value is, setting by setting: (30 °C) -3.26 ± 0.14; (37 °C) -2.57 ± 0.15.
CUCGAGCAAUAUUACGCUGU: the “self-splicing fitness (ln)” value (37 °C) was -2.66 ± 0.44.
As for UGCGAGCAAUAUUACGUAUA, the “self-splicing fitness (ln)” value runs as follows: (30 °C) -2.89 ± 0.25; (37 °C) -0.733 ± 0.22.
For GUGCAGCAAUAUUACGCGUA, in that order: -1.62 ± 0.13 and -0.278 ± 0.1.
For CCGUAGCAAUAUUACGGGAU, the “self-splicing fitness (ln)” value runs as follows: (30 °C) -4.51 ± 0.29; (37 °C) -2.53 ± 0.2.
On the same counts, the results for CCCUAGCAAUAUUACGCUAC are -2.96 ± 0.34 and -1.84 ± 0.43.
For GGCCAGCAAUAUUACGAAUC, in that order: -0.266 ± 0.11 and 0.822 ± 0.14.
For GCAUAGCAAUAUUACGUUCG, in that order: -1.43 ± 0.08 and 0.166 ± 0.09.
Regarding UGUGAGCAAUAUUACGGUUA, the “self-splicing fitness (ln)” value was -2.47 ± 0.2 (30 °C) and -0.332 ± 0.16 (37 °C).
For GUGAAGCAAUAUUACGAAUC, the “self-splicing fitness (ln)” value reads like this: (30 °C) -0.696 ± 0.14; (37 °C) -0.964 ± 0.22.
For AACCAGCAAUAUUACGUGGU, in that order: -3.19 ± 0.12 and -3.15 ± 0.17.
As to CCUCAGCAAUAUUACGCUCU, the “self-splicing fitness (ln)” value (30 °C) is -4.29 ± 0.43.
For the sequence CCUUAGCAAUAUUACGGUAA, the “self-splicing fitness (ln)” value by setting is: (30 °C) -2.78 ± 0.27; (37 °C) -2.59 ± 0.35.
For CAGCAGCAAUAUUACGAUUG, in that order: -2.36 ± 0.093 and -0.731 ± 0.09.

The record behind these values is the supplement of paper PMC7877785.
